This note sets out measurements from US20220396632A1 (VERSEAU THERAPEUTICS, published 2022).

Experiment [1] addresses T1, Recombinant human PSGL-1(ECD)-hFc1 (R&D Systems, Cat. 3345-PS) (human, UniProt Q14242 42-305).
T1 construct: Bought; Gln42-Val295 counted on AAC50061; also called PSGL-1-Fc; PSGL-1-hFc1 chimera; not shown: human IgG1 Fc, Pro100-Lys330
T1 sequence: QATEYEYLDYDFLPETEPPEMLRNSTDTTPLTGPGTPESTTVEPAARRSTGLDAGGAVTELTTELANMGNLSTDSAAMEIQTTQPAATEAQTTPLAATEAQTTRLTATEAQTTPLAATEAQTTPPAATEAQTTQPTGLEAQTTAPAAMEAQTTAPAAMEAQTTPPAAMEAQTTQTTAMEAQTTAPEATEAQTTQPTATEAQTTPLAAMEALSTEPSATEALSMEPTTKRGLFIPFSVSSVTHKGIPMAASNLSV
Briefly: ELISA, plate-bound target.

Experiment [2] deals with T2, Biotin PSGL-1(42-62) peptide, unmodified (human, C-terminal Lys-biotin).
T2 construct: Residues 42-62 followed by GGGK-biotin; also called WT; wild-type
T2 peptide: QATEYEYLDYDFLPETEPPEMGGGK
Briefly: ELISA, plate-bound target.

The target in experiment [3] is T3, Biotin Y46,48,51(SO3) PSGL-1(42-62) peptide (human, sulfotyrosine at Y46, Y48 and Y51; C-terminal Lys-biotin).
T3 construct: also called fully sulfated N-terminal PSGL-1 peptide
T3 peptide: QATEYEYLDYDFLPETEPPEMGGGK
Description: ELISA, plate-bound target.

For experiment [4], the target named is T4, Cynomolgus PSGL-1(ECD)-HIS (cynomolgus macaque).
T4 construct: also called Cyno PSGL1-His
T4 chain: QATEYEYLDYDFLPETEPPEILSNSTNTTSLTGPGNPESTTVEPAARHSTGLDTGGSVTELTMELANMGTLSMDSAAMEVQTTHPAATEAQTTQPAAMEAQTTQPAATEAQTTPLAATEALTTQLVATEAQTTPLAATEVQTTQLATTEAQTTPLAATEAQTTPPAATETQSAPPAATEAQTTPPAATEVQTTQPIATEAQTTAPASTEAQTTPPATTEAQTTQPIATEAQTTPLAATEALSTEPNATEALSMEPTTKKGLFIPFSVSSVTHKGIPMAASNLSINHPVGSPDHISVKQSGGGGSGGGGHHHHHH
Description: ELISA, plate cyno PSGL-1(ECD)-HIS. The protocol: Antibody binding to plate-immobilized cyno PSGL-1(ECD) was determined either at one concentration (20 nM) or by generating full antibody binding curves (0.003-200 nM). A typical ELISA was performed by overnight coating at 4° C. with 3 ug/mL/25 ul per well of recombinant cyno PSGL-1(ECD) protein in PBS, pH 7.4, in high binding half-well plates (Corning Cat. #3690). […] Anti-PSGL-1 IgG in assay buffer (blocking buffer containing 0.05% tween 20) was added into test and control wells (20 nM/25 ul/well) and the plate incubated for 45 min at 37° C. […] The plate was incubated for 45 min at 37° C., and mAb bound to plate-immobilized target determined at A450 nm using HRP substrate (3,3′,5,5′-tetramethylbenzidine (TMB)). For each antibody, duplicate values were averaged and assay background subtracted.

Experiment [5] addresses T5, Biotin sY51 PSGL-1(42-62) peptide (human, sulfotyrosine at Y51; C-terminal Lys-biotin).
T5 construct: also called Y51(SO3) PSGL-1(42-62)
T5 peptide: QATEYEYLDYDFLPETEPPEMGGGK
Description: ELISA, immobilized biotin peptide. An outline of the steps:
(§1)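 In this ELISA, half-well high binding plates (Corning Cat. #3690) received 3 ug/mL/25 ul per well of biotin-tagged PSGL-1 peptides covering residues 42 to 62, diluted in PBS, pH 7.4, and coated overnight at 4° C. Duplicate readings for each antibody were averaged and the average assay background was subtracted. PSGL-1 protein or peptide was the positive control.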

Experiment [6] concerns the target T6, Scrambled Y46,48,51(SO3) PSGL-1(42-62) biotin peptide (sulfotyrosine at peptide positions 5, 7 and 10; C-terminal Lys-biotin).
T6 construct: also called scrambled sulfated peptide: biotin
T6 peptide: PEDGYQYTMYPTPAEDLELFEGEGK
Briefly: ELISA, immobilized biotin peptide. An outline of the steps: as §1

B1: 2E12 (antibody, V domains shown)
VH: QVQLQQSGAELARPGASVKLSCKASGYTFTNYGLNWVKQRTGQGLEWIGEIYPRSGNTYYNEKFKGKATLTADKSSSTAYMQLSSLTSEDSAVYFCATEGAYWGQGTLVTVSA
VL: DIVMTQTPLTLSVTIGQPASISCKSSQSLLHGNGKTYLNWLLQRPGQSPKLLIYLVSKLESGIPDRFSGSGSGTDFTLEISRVEAEDLGIYYCLQSTHFPRTFGGGTKLEIK
notes: Mouse hybridoma mAb; only variable domains given
With B1, the concentration giving a half-maximal response (EC50) in experiment [1] amounted to 0.6 nM; in experiment [2] it was 1.02 nM; in experiment [3], 1.21 nM; in experiment [4] it was 0.58 nM; in experiment [5] it was 0.659 nM; in experiment [6], 30 nM.

B2: 18F02 (antibody, V domains shown)
VH: QVQLQQPGAELVKPGASVKLSCKASGYTFTSYWMHWVKQRPGQGLEWIGMIHPNSGRTNYNEKFKSKATLTVDKSSSTAYMQLSSLTSEDSAVYYCARSDYWGQGTTLTVSS
VL: DIVMTQAAFSNPVTLGTSASISCRSSKSLLHSDGITYLYWFLQRPGQSPQLLIYRMSNLASGVPDRFSGSGSGTDFTLRISRVEAEDVGVYYCAQMLEFPRTFGGGTKLEIK
notes: From mouse immunisation; only variable domains given
In the case of B2, the EC50 is 0.57 nM in experiment [1]; 0.68 nM in experiment [2]; 0.45 nM in experiment [3]; 0.51 nM in experiment [4]; 0.705 nM in experiment [5]. For the same molecule, in experiment [6], the binding result is reported as “no binding”.

B3: 18K07 (antibody, V domains shown)
VH: QIQLVQSGPELKKPGETVKISCEASGYTFTTYGMNWVKQAPGKGLKWMGWINTYSGVPTYADDFQGRFAFSVETSATTAYLQINNLKNEDAATYFCARSDDTYYGFAYWGQGTLVTVSA
VL: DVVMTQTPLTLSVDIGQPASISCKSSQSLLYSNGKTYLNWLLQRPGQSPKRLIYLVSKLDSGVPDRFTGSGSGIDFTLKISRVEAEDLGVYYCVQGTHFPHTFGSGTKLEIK
notes: as for B2
Consider B3, for which the EC50 in experiment [4] was 8.49 nM.

B4: 5E12 (antibody, V domains shown)
VH: EIQLQQSGAELVRPGASVKLSCTASGFNIKDDYIHWVKQRPEQGLEWIGRIDPANGNTKSAPKFQDKATITADTSSNTAYLHLSSLTSEDTAVYYCSIRFAYWGQGTLVTVSA
VL: DVVMTQTPLSLSVSLGDQASISCRSSQSLVYRNGDTYLHWFLQKPGQSPKLLIYKVSNRFSGVPDRFSGSGSGTDFTLKISRVEAEDLGIYFCSQNTHVPYTFGGGTKLEIK
notes: as for B1
As for B4, the EC50 is 0.51 nM in experiment [1]; 0.86 nM in experiment [2]; 0.92 nM in experiment [3]; 0.59 nM in experiment [4]; 0.547 nM in experiment [5]; 32.3 nM in experiment [6].

B5: 19I01 (antibody, V domains shown)
VH: EVQLVESGGGLVKPGGSRKLSCAASGFTFSDYGMHWVRQAPEKGLEWVAYISSGSSTIYYADTVKGRFTISRDNAKNTLFLQMTSLRSEDTAMYYCARGVDGYWGQGTTLTVSS
VL: DVVMTQTPLSLPVSLGDQASISCRSSQSLVHSNGNTYLHWYLQKPGQSPKFLIYKVSNRFSGVPDRFSGSGSGTDFTLKISRVEAEDLGVYFCSQTTHVPLTFGAGTKLELK
notes: From mouse immunisation; only variable domains given; also called 19101
On to B5, for which the EC50 in experiment [1] was 1.23 nM; in experiment [2], 0.92 nM; in experiment [3], 0.92 nM; in experiment [4], 0.68 nM; in experiment [5], 1.22 nM; in experiment [6], 198 nM.

B6: 16E17 (antibody, V domains shown)
VH: QIQLVQSGPELKKPGETVKISCKASGYAFTTYGMSWVKQAPGKGLKWMGWINTYSGVPKYADDFKGRFAFSLETSASTAYLHINNLKNEDTATYFCGRHYYGSSYFDYWGQGTTLTVSS
VL: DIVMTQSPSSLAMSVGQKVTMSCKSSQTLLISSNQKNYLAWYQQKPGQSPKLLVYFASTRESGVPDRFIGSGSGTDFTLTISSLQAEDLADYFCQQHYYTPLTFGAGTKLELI
notes: as for B2
Turning to B6, in experiment [4], the EC50 came out at 0.53 nM.

B7: 19N05 (antibody, V domains shown)
VH: QIQLVQSGPELKKPGETVKISCKASGYTFTTYGMSWVKQAPGKGLKWMGWINTYSGVPTFADDFKGRFAFSLETSASTAYLQINNLKNEDTATFFCARNYYGNHYFDYWGQGTTLTVSS
VL: DVQITQSPSYLAASPGETISINCRASNNINKYLAWYQEKPGKTNKLLIYSGSTLQSGIPSRFSGSGSGTDFTLTISSLEPEDFAMYHCQQHNYYPLTFGAGTKLELK
notes: as for B2
Consider B7, for which the EC50 in experiment [4] came out at 0.95 nM.

B8: 19L04 (antibody, IgG4, V domains shown)
VH: QIQLVQSGPELKKPGETVKISCKASGYTFTTYGMSWVKQAPGKGLKWMGWINTYSGVPTYADDFKGRFAFSLETSASTAYLQINNLKIEDTATYFCARHYYGSHYFDYWGQGTTLTVSS
VL: DIMMTQSPSSLAMSVGQKVTLRCKSSQSLLNSSNQKNYLAWYQQKPGQSPKLLVYFASTRESGVPVRFIGSGSGTDFTLTISSMQAEDLADYFCQQHYFSPLTFGAGTKLELK
notes: as for B2
In experiment [4], B8 showed an EC50 of 1.11 nM.

B9: 16L15 (antibody, V domains shown)
VH: DVKLVESGGGLVKLGGSLKLSCAASGFTFSSYYMSWVRQTPEKRLEWVATISNGGGSTYYPDSVKDRFTISRDNAKNTLYLQMSSLNSEDTAVYYCAKPLYYSNPWFAYWGQGTLVTVSA
VL: DVLLTQTPLSLPVSLGDQASISCRSSQSIVHSNGNTYLEWYLQKPGQSPKLLIYKVSNRFSGVPDRFSGSGSGTDFTLKISRVEAEDLGVYYCFQGSHVPRTFGGGTKLEIK
notes: as for B2
As to B9, the 50% effective concentration (EC50) amounted to 0.96 nM in experiment [1]; 0.89 nM in experiment [2]; 0.92 nM in experiment [3]; 0.53 nM in experiment [4]; 0.814 nM in experiment [5]. Also, in experiment [6], the binding result is “no binding”.

B10: 9F9 (antibody, V domains shown)
VH: EVQLVETGGGLVQPKGSLKLSCAASGFTFNTNAMNWVRQAPGKGLEWVARIRSKSNNYATYYADSVKDRFTISRDDTQSMIYLQMNNLKTEDTGMYYCVRGGSYWYFDVWGAGTTVTVSS
VL: DVLMTQTPLSLPVSLGDQASISCRSSQSIVNSNGNTYLEWYLQKPGQSPKLLIYKVSNRFSGVPDRFSGSGSGTDFTLKISRVEAEDLGVYYCFQGSHVPWTFGGGTKLEIK
notes: Control anti-PSGL-1 mAb, recombinant; only variable domains given; also called 9F6
B10: the EC50 in experiment [1] was 0.06 nM; in experiment [2], 0.04 nM; in experiment [3], 0.05 nM.

B11: 05D01 (antibody, V domains shown)
VH: QVTLRESGGALVQPGGSLRLSCAASGFPLRSNAMTWVRQAPGKGLEWVSDIRGNGASTYYADSVKGRFTISRDDSNNILFLQMNSLRAEDTAVYYCVGHGSSSYWGQGTLVTVSS
VL: DVVMTQSPLSLPVTLGQPASISCRSSQSLVYRDGNIYLNWFQQRPGQSPRRLIYKVSNRDSGVPDRFSGSGSGTDFTLKISRVEAEDVGVYYCMQLTHWPPGFAQGTKLEIK
Molecule B11 displayed an EC50 in experiment [6] of 1.33 nM.

B12: 43B6 (antibody, V domains shown)
VH: EVQLQQSGPDLVKPGALVKISCKASGYSFTAYYIHWVKQSHGKSLEWIGRVNPNTGGTSYNPKFKGKAILNVDKSSSTAYMELRSLTSEDSAVYYCARSGSPYYRYDDWGQGTTLTVSS
VL: ENVLTQSPAIMSASPGEKVTMTCRASSTVNSTYLHWFQQKSGASPKLWIYGSSNLASGVPARFSGSGSGTSYSLTISSVEAEDAATYYCQQYSGYPLTFGAGTTLELK
notes: Control anti-PSGL-1 mAb, recombinant; only variable domains given; also called 43B3
For B12, the figures for the EC50 in experiment [1], in experiment [2] and in experiment [3] were 0.05 nM, 0.03 nM and 0.04 nM, respectively.
